Data as given in patent publication US20250057927A1, “ALPHA-1 A[…] FROM YEAST FOR USE IN THE TREATMENT OF VIRAL INFECTIONS” (priority 2021, published 2025).

B1: rec α1AT Fraction 52 (protein)
chain: EDPQGDAAQKTDTSHHDQDHPTFNKITPNLAEFAFSLYRQLAHQSNSTNIFFSPVSIATAFAMLSLGTKADTHDEILEGLNFNLTEIPEAQIHEGFQELLRTLNQPDSQLQLTTGNGLFLSEGLKLVDKFLEDVKKLYHSEAFTVNFGDTEEAKKQINDYVEKGTQGKIVDLVKELDRDTVFALVNYIFFKGKWERPFEVKDATEEEDFHVDQVTTVKVPMMKRLGMFNIQHCKKLSSWVLLMKYLGNATAIFFLPDEGKLQHLENELTHDIITKFLENEDRRSASLHLPKLSITGTYDLKSVLGQLGITKVFSNGADLSGVTEEAPLKLSKAVHKAVLTIDEKGTEAAGAMFLEAIPMSIPPEVKFNKPFVFLMIEQNTKSPLFMGKVVNPTQK
B2: rhAAT (protein)
chain: EDPQGDAAQKTDTSHHDQDHPTFNKITPNLAEFAFSLYRQLAHQSNSTNIFFSPVSIATAFAMLSLGTKADTHDEILEGLNFNLTEIPEAQIHEGFQELLRTLNQPDSQLQLTTGNGLFLSEGLKLVDKFLEDVKKLYHSEAFTVNFGDTEEAKKQINDYVEKGTQGKIVDLVKELDRDTVFALVNYIFFKGKWERPFEVKDATEEEDFHVDQVTTVKVPMMKRLGMFNIQHCKKLSSWVLLMKYLGNATAIFFLPDEGKLQHLENELTHDIITKFLENEDRRSASLHLPKLSITGTYDLKSVLGQLGITKVFSNGADLSGVTEEAPLKLSKAVHKAVLTIDEKGTEAAGAMFLEAIPMSIPPEVKFNKPFVFLMIEQNTKSPLFMGKVVNPTQK
B3: rec α1AT Fraction 53 (protein)
chain: EDPQGDAAQKTDTSHHDQDHPTFNKITPNLAEFAFSLYRQLAHQSNSTNIFFSPVSIATAFAMLSLGTKADTHDEILEGLNFNLTEIPEAQIHEGFQELLRTLNQPDSQLQLTTGNGLFLSEGLKLVDKFLEDVKKLYHSEAFTVNFGDTEEAKKQINDYVEKGTQGKIVDLVKELDRDTVFALVNYIFFKGKWERPFEVKDATEEEDFHVDQVTTVKVPMMKRLGMFNIQHCKKLSSWVLLMKYLGNATAIFFLPDEGKLQHLENELTHDIITKFLENEDRRSASLHLPKLSITGTYDLKSVLGQLGITKVFSNGADLSGVTEEAPLKLSKAVHKAVLTIDEKGTEAAGAMFLEAIPMSIPPEVKFNKPFVFLMIEQNTKSPLFMGKVVNPTQK

Test system: lentiviral pseudoparticles harbouring the SARS-CoV-2 spike protein of Wuhan Hu-1 isolate
Format: cell-based

| Molecule | IC50 of inhibiting pseudoparticle entry into Caco2 cells | estimated IC90 | pseudoparticle entry | inhibition of pseudoparticle entry compared to Prolastin | inhibition of the entry of SARS-CoV-2 | inhibition of pseudoparticle entry | activity in the pseudoparticle assay compared to Prolastin |
| --- | --- | --- | --- | --- | --- | --- | --- |
| Prolastin | 3160 µg/mL | 20000 µg/mL | about 10% | – | – | – | – |
| B1 | – | – | – | greater inhibition | inhibit the entry of SARS-CoV-2 similar to Prolastin | – | – |
| B2 | – | 8000 µg/mL | – | – | – | complete inhibition | – |
| B3 | – | – | – | greater inhibition | inhibit the entry of SARS-CoV-2 similar to Prolastin | – | greater activity |
